Residue numbers refer to the chain shown, from its start.
T1: human PAR-2 (human, UniProt P55085 26-397)
T1 sequence: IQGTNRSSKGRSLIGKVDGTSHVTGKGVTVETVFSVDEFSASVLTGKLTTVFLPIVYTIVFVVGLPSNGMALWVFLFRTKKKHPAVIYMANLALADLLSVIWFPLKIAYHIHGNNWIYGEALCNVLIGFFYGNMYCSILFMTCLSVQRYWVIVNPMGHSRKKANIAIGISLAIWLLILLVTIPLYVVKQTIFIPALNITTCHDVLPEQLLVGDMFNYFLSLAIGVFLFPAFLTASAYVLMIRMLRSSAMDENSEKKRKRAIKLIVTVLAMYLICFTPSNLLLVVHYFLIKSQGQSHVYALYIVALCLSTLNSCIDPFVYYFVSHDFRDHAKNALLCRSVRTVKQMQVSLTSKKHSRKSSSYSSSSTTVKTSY

T2: human PAR-1 (human, UniProt P25116 22-425)
T2 construct: also called huPAR-1
T2 sequence: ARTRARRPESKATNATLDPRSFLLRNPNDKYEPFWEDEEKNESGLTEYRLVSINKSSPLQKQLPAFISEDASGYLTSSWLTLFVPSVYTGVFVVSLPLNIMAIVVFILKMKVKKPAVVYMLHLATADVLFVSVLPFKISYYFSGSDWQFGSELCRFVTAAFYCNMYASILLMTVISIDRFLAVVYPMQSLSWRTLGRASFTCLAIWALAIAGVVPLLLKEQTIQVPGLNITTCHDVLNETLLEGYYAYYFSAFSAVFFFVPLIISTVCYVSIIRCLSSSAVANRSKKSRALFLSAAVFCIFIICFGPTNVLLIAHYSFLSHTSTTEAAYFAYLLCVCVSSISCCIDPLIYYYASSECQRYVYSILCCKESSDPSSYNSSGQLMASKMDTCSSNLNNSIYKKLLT

B1: Ab140 (antibody, human IgG4, V domains shown)
VH: EVQLVESGGGLVQPKGSLKLSCAASGFTFNSYAMHWVRQAPGKGLEWVACIRSKSSYYATYYADSVKDRFTISRHDSQSMLYLQMNNLKTEDTAMYYCVREDYYGSSYDYWGQGTTLTVSS
VL: QIVLTQSPAIMSASLGERVTMTCTASSSVSSSYLHWYQQKPGSSPKLWIYATSNLASGVPARFSGSGSGTSYSLTISSMEAEDAATYYCHQYHRSPLTFGAGTKLELK
notes: also called Anti-PAR-2 antibody # 140
B2: Ab189 (antibody, human IgG4, V domains shown)
VH: B1 VH with S31T, C50R, S55T, S56T, Y57N, H75D, M85I, N86S, Y108L
VL: B1 VL with S30I, Y50F, A51S, S78T
notes: also called Anti-PAR-2 antibody # 189
B3: P24E233 (antibody, human IgG4 S228P, kappa, V domains shown)
VH: QVQLVQSGAEVKKPGSSVKVSCKASGFSLNSYGVIWVRQAPGQGLEWMGVIWGNGNTYYYQKFQGRVTITADESTSTAYMELSSLRSEDTAVYYCARWRGYKDYPFDYWGQGTLVTVSS
VL: EIVLTQSPATLSLSPGERATLSCKASQNIYKYLDWYQQKPGQAPRLLIYNTNSLHTGIPARFSGSGSGRDFTLTISSLEPEDFAVYYCLQHNSGWTFGGGTKVEIKR
B4: P24E282 (antibody, human IgG4 S228P, kappa, V domains shown)
VH: B3 VH with N30S, Y60A
VL: B3 VL with L54R, H55A
B5: P24E280 (antibody, human IgG4 S228P, kappa, V domains shown)
VH: B3 VH with N30S, Y60A
VL: B3 VL with I29V, H55A
B6: P24E279 (antibody, human IgG4 S228P, kappa, V domains shown)
VH: B3 VH with N30S, Y60A
VL: B3 VL with K24R, H55A
B7: P24E794 (antibody, human IgG4 S228P, kappa, V domains shown)
VH: B3 VH with N30S, G33A, V34I, I35S, Y60A
VL: B3 VL with K24R, I29V, Y32W, T51A, N52Y, L54R, H55A, L89Q
B8: P24E743 (antibody, human IgG4 S228P, kappa, V domains shown)
VH: B3 VH with N30S, G33A, V34I, I35S, Y60A
VL: B3 VL with I29V, Y32W, T51A, N52Y, H55A, L89Q, N92G
B9: P24E288 (antibody, human IgG4 S228P, kappa, V domains shown)
VH: B3 VH with V34I, Y60A
VL: B3 VL with H55A
B10: P24E283 (antibody, human IgG4 S228P, kappa, V domains shown)
VH: B3 VH with G33A, Y60A
VL: B3 VL with H55A
B11: P24E298 (antibody, human IgG4 S228P, kappa, V domains shown)
VH: B3 VH with N30S, G33A, V34I, I35S, Y60A
VL: B3 VL with Y32W, H55A
B12: P24E914 (antibody, human IgG4 S228P, kappa, V domains shown)
VH: B3 VH with N30S, G33A, V34I, I35S, Y60A, R99K
VL: B3 VL with K24R, Y32W, T51A, N52Y, H55A, L89Q
B13: P24E287 (antibody, human IgG4 S228P, kappa, V domains shown)
VH: B3 VH with G33A, Y60A
VL: B3 VL with L54R, H55A
B14: P24E285 (antibody, human IgG4 S228P, kappa, V domains shown)
VH: B3 VH with G33A, Y60A
VL: B3 VL with I29V, H55A
B15: P24E291 (antibody, human IgG4 S228P, kappa, V domains shown)
VH: B3 VH with V34I, Y60A
VL: B3 VL with T51A, H55A
B16: P24E301 (antibody, human IgG4 S228P, kappa, V domains shown)
VH: B3 VH with N30S, G33A, V34I, I35S, Y60A, R99K
VL: B3 VL with Y32W, H55A
B17: P24E286 (antibody, human IgG4 S228P, kappa, V domains shown)
VH: B3 VH with G33A, Y60A
VL: B3 VL with T51A, H55A
B18: P24E292 (antibody, human IgG4 S228P, kappa, V domains shown)
VH: B3 VH with V34I, Y60A
VL: B3 VL with L54R, H55A
B19: P24E281 (antibody, human IgG4 S228P, kappa, V domains shown)
VH: B3 VH with N30S, Y60A
VL: B3 VL with T51A, H55A
B20: P24E293 (antibody, human IgG4 S228P, kappa, V domains shown)
VH: B3 VH with G33A, V34I, I35S, Y60A
VL: B3 VL with H55A
B21: P24E290 (antibody, human IgG4 S228P, kappa, V domains shown)
VH: B3 VH with V34I, Y60A
VL: B3 VL with I29V, H55A
B22: P24E889 (antibody, human IgG4 S228P, kappa, V domains shown)
VH: B3 VH with N30S, G33A, V34I, I35S, Y60A
VL: B3 VL with K24R, Y32W, T51A, N52Y, H55A, L89Q
B23: P24E296 (antibody, human IgG4 S228P, kappa, V domains shown)
VH: B3 VH with G33A, V34I, I35S, Y60A
VL: B3 VL with T51A, H55A
B24: P24E295 (antibody, human IgG4 S228P, kappa, V domains shown)
VH: B3 VH with G33A, V34I, I35S, Y60A
VL: B3 VL with I29V, H55A
B25: P24E284 (antibody, human IgG4 S228P, kappa, V domains shown)
VH: B3 VH with G33A, Y60A
VL: B3 VL with K24R, H55A
B26: P24E300 (antibody, human IgG4 S228P, kappa, V domains shown)
VH: B3 VH with N30S, G33A, V34I, I35S, Y60A, Y101W
VL: B3 VL with Y32W, H55A
B27: P24E297 (antibody, human IgG4 S228P, kappa, V domains shown)
VH: B3 VH with G33A, V34I, I35S, Y60A
VL: B3 VL with L54R, H55A
B28: P24E294 (antibody, human IgG4 S228P, kappa, V domains shown)
VH: B3 VH with G33A, V34I, I35S, Y60A
VL: B3 VL with K24R, H55A
B29: P24E278 (antibody, human IgG4 S228P, kappa, V domains shown)
VH: B3 VH with N30S, Y60A
VL: B3 VL with H55A
B30: P24E883 (antibody, human IgG4 S228P, kappa, V domains shown)
VH: B3 VH with N30S, G33A, V34I, I35S, Y60A
VL: B3 VL with I29V, Y32W, T51A, N52Y, H55A, L89Q
B31: P24E289 (antibody, human IgG4 S228P, kappa, V domains shown)
VH: B3 VH with V34I, Y60A
VL: B3 VL with K24R, H55A

Target: T1, human PAR-2
Experiment: cell-based or functional assay

IC50, PAR-2 β-arrestin cell assay	Binder
20.1 nM	B1
123 nM	B2

Target: T1, human PAR-2
Experiment: cell-based or functional assay
Remark: another data set of the same source

PAR-2 β-arrestin cell based assay IC50, 1 µM SLIGKV	PAR-2 β-arrestin cell based assay IC50, 2 µM SLIGKV	Binder
1.77 nM		B3
	2 nM	B4
	1.9 nM	B5
	2.8 nM	B6
	0.89 nM	B7
	1.51 nM	B8
	1.4 nM	B9
	3.6 nM	B10
	1.47 nM	B11
	0.94 nM	B12
	2.2 nM	B13
	2.3 nM	B14
	3.1 nM	B15
	1.48 nM	B16
	2.1 nM	B17
	1.2 nM	B18
	2.6 nM	B19
	2 nM	B20
	2.2 nM	B21
	0.97 nM	B22
	2.4 nM	B23
	1.6 nM	B24
	2.5 nM	B25
	1.3 nM	B26
	3 nM	B27
	2.9 nM	B28
	2.5 nM	B29
	1.21 nM	B30
	2.6 nM	B31

Target: T2, human PAR-1
Experiment: flow cytometry, transfected Expi293F cells
Protocol: Paired heavy and light chains encoded by these sequence pairs were expressed as a full length human IgG4 isotype antibodies and assessed for PAR-2 binding and selectivity by flow cytometry. […] Cells were used for flow cytometric analysis 36-48 hours post-transfection. Use of Nt-PAR-2 as a target allowed antibodies which bound the N-terminal residues of PAR-2 (which comprise the protease-cleavage sites on PAR-2) to be distinguished from antibodies which bound other extracellular sites on PAR-2, such as the PAR-2-activating ligand-binding site(s). Expi293F cells, transiently expressing one of each of the different target proteins were labelled with different intensities of a single fluorphor Encoder dye (Intellicyt) for 10 mins at either 1 in 250 dilution for high intensity and/or 1 in 1500 dilution for moderate intensity, enabling simultaneous analysis of multiple cell populations. After washing the cells were then mixed in an equal ratio with the unlabeled cell type and analyzed for antibody binding.
The cells were plated in 96 well plates at 2×10⁵ cells/well. Following a wash step using Phosphate buffered saline (PBS), the primary antibody (anti-PAR-2 antibody) was added at a concentration of 10 μg/mL in 50 μL of FACS buffer (0.5% w/v BSA in PBS) to each well and incubated for 10-15 mins. Following a wash step, secondary antibody (anti-human Fc-FITC) was added to the wells at 1:200 dilution in 50 μL for 10-15 mins. Following a washing step, the cells were re-suspended in fluorescence-activated cell sorting (FACS) buffer. The flow cytometry analysis was performed on an Intellicyt iQue screener. Gates were drawn around the different intensities of encoder dye-positive cells and these populations were analyzed separately from each other and the unlabeled cells for binding by the primary antibody.

binding result	Binder
no binding (tested: 10 µg/mL)	B1
no binding (tested: 10 µg/mL)	B2

From patent US20220056125A1 (CEPHALON, published 2022)
